The record followed here is patent US20210301026A1 (ULTRAHUMAN TWELVE, published 2021).

Assay [1] addresses T1, monomeric human CSF1R ectodomain protein (human, UniProt P07333 20-517).
T1 construct: also called biotinylated monomeric human CSF1R
As to the kind of experiment: SPR Biacore, IgG captured, monomeric CSF1R analyte. As for the experimental part:
(§1) Affinity (KD) of purified IgGs was determined via SPR with antigen in-solution on a Biacore 3000 (GE). A mouse anti-human antibody (CH1 specific) was immobilized on a CM5 Sensor Chip to a level of 2000 RU in acetate buffer at pH 4.5 using amine coupling following the Wizard instructions for two channels. One channel was used for background signal correction. The standard running buffer HBS-EP pH 7.4 was used. Regeneration was performed with a single injection of 10 μl of 10 mM Glycine at pH 1.5 at 20 μl/minute. IgG samples were injected for 2 minutes at 50 nM at 30 μl/min followed by and off-rate of 60 seconds. The monomeric ectodomain protein (human CSF1R or cynomolgus monkey CSF1R) was injected in two fold serial dilutions from 100 nM down to 3.1 nM, for 2 minutes at 30 μl/min followed by an off-rate of 300 seconds. The obtained sensorgrams were analysed using the Biacore 3000 evaluation (BIAevaluation) software. The KD was calculated by simultaneous fitting of the association and dissociation phases to a 1:1 Langmuir binding model.
(In general: Surface plasmon resonance follows binding to a sensor surface in real time, without labels.)

Assay [2] deals with T2, monomeric cynomolgus monkey CSF1R ectodomain protein (cynomolgus monkey, UniProt P07333 20-517 (human entry)).
T2 construct: also called monomeric cyno CSF1R; Cyno CSF1R
T2 chain: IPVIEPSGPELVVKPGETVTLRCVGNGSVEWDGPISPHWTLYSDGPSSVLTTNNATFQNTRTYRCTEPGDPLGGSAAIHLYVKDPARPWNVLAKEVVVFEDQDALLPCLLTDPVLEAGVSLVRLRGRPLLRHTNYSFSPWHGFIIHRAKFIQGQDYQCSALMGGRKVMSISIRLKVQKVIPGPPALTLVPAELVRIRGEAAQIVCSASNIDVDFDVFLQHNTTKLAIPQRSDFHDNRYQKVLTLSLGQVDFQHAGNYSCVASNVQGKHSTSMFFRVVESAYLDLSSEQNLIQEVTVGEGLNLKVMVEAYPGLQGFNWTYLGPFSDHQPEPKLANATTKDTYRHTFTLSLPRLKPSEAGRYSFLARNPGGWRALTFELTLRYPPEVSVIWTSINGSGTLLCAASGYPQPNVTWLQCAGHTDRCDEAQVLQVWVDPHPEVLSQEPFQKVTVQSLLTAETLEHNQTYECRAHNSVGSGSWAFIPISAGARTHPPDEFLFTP
As to the kind of experiment: SPR Biacore, IgG captured, monomeric CSF1R analyte. As for the experimental part:
as §1

Assay [3] has as its target T3, cynomolgus monkey CSF1R human Fc tagged recombinant protein (cynomolgus monkey, UniProt P07333 20-517 (human entry), limits assumed).
T3 construct: also called cyno CSF1R-Fc
T3 chain: T2 chain
As to the kind of experiment: direct titration ELISA on coated cyno CSF1R-Fc, IgG4(S228P) format, OD 450 nm. As for the experimental part: (§2) Binding and cross-reactivity of the lead panel to the recombinant proteins was initially assessed by binding ELISA. The human CSF1R human Fc tagged recombinant protein and the cynomolgus monkey CSF1R human Fc tagged recombinant protein were coated to the surface of MaxiSorp™ flat-bottom 96 well plate at 1 μg/ml. The purified IgG samples were titrated in two fold serial dilutions starting from 500 nM to 0.008 nM and allowed to bind to the coated antigens. The Fabs were detected using mouse anti-c-myc antibody followed by donkey anti-mouse IgG conjugated to horseradish peroxidase. The IgGs were detected using the mouse anti-human IgG conjugated to horseradish peroxidase. Binding signals were visualized with 3,3′,5,5′-Tetramethylbenzidine Substrate Solution (TMB) and the absorbance measured at 450 nm.
In general terms: An ELISA detects its analyte on a solid surface through an enzyme-linked reagent.

Assay [4] deals with T4, human CSF1R, membrane-presented on cells (human, UniProt P07333 20-972).
T4 construct: HEK-293 cells transiently transfected with human CSF1R (flow cytometry); the native receptor on primary human monocytes in the proliferation assay; also called human CSF1R+ HEK-293 cells; CSF1R on primary human CD14+ monocytes
As to the kind of experiment: flow cytometry on HEK-293 cells expressing human CSF1R, MFI. In general terms: A flow cytometer gives signals particle by particle.

The target of assay [5] is T5, human CSF1R human Fc tagged recombinant protein (human, UniProt P07333 20-517).
T5 construct: also called human CSF1R-Fc
The experiment in a line: direct titration ELISA on coated human CSF1R-Fc, IgG4(S228P) format, OD 450 nm. As for the experimental part:
as §2

The target in assay [6] is T1, monomeric human CSF1R ectodomain protein. As to the kind of experiment: SPR Biacore, IgG captured, monomeric CSF1R analyte. On the procedure: as §1
(§3) Biacore analyses of binding affinity were performed for all IgGs to solution-phase, monomeric human and cyno CSF1R proteins (Table 6). […] Affinity differentials of less than 3-fold between human and cyno target orthologs are highly beneficial in pre-clinical drug development analyses as they allow more accurate design and interpretation of e.g. monkey safety, PK and PD modelling experiments.
This is another data set of the same source.

Assay [7] concerns the target T2, monomeric cynomolgus monkey CSF1R …. The experiment in a line: SPR Biacore, IgG captured, monomeric CSF1R analyte. As for the experimental part: as §1, §3
Another assay deals with T6, human insulin (human, UniProt P01308 25-54; P01308 90-110, limits assumed).
T6 construct: Coated antigen of the polyreactivity ('PK-risk indicator') ELISA
T6 sequence (P01308 25-54 limits assumed, chain 1 of 2): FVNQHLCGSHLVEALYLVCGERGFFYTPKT
T6 sequence (P01308 90-110 limits assumed, chain 2 of 2): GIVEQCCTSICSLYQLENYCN
The experiment in a line: ELISA on human insulin (development risk, polyreactivity), binding score.

Assay [8] has as its target T1, monomeric human CSF1R ectodomain protein. As to the kind of experiment: AlphaScreen competition with mu0301 IgG4(S228P) for biotinylated monomeric human CSF1R. As for the experimental part: The AlphaScreen assay (Perkin Elmer) was performed in a 25 μl final volume in 384-well white microtiter plates (Greiner). The reaction buffer contained 1×PBS pH 7.3 (Oxoid, Cat. nr. BR0014G) and 0.05% (v/v) Tween® 20 (Sigma, Cat. nr. P9416). Purified IgG samples were titrated in three fold serial dilutions starting at 500 nM final concentration and incubated with biotinylated human CSF1R for 20 minutes at room temperature. […] The emission of light was measured in the EnVision multilabel plate reader (Perkin Elmer) and analysed using the EnVision manager software. Values were reported as Counts Per Second (CPS) and corrected for crosstalk. The EC50 values were calculated using the […] in GraphPad Prism software (GraphPad Software, La Jolla, Calif.).

Assay [9] concerns the target T5, human CSF1R human Fc tagged recombinant …. As to the kind of experiment: direct titration ELISA on coated human CSF1R-Fc, IgG4(S228P) format, OD 450 nm. As for the experimental part: as §2
The source holds these as a separate data set.

For assay [10], the target named is T2, monomeric cynomolgus monkey CSF1R …. As to the kind of experiment: SPR Biacore; KD on monomeric cyno CSF1R against KD of the same clone on monomeric human CSF1R as reference. On the procedure: as §1
For assay [11], the target named is T3, cynomolgus monkey CSF1R human Fc tagged …. The experiment in a line: direct titration ELISA on coated cyno CSF1R-Fc, IgG4(S228P) format, OD 450 nm. As for the experimental part:
as §2

Where a chain is given by its changes, count along the chain named. Names and notes keep the numbering of the source. Where two headings read alike, the source gives them in different places.

B1: murine anti-CSF1R antibody 0301 (mu0301), v-domains in human IgG4(S228P) format (antibody, V domains shown)
VH: EVQLQQSGPELVRPGASVKMSCKASGYTFTDNYMIWVKQSHGKSLEWIGDINPYNGGTTFNQKFKGKATLTVEKSSSTAYMQLNSLTSEDSAVYYCARESPYFSNLYVMDYWGQGTSVTVSS
VL: NIVLTQSPASLAVSLGQRATISCKASQSVDYDGDNYMNWYQQKPGQPPKLLIYAASNLESGIPARFSGSGSGTDFTLNIHPVEEEDAATYYCHLSNEDLSTFGGGTKLEIK
As usually defined, the Kd is the constant that tells how readily two partners part at equilibrium. What is called koff is the first-order rate constant of dissociation. As a reminder, the kon is the second-order rate constant of association. Broadly, the EC50 (read off the curve) is the concentration giving half of the maximal effect. What is called IC50 is the midpoint of a concentration-inhibition curve. For B1, the dissociation constant (Kd) in [1] was 0.024 nM; in [2], 0.1 nM; in assay [6], 0.024 nM; in assay [7], 0.1 nM. In addition, the koff in [1] was 6.9e-05 s⁻¹; in assay [2] it was 7.4e-05 s⁻¹; in [6] it was 6.9e-05 s⁻¹; in [7] it was 7.4e-05 s⁻¹. In addition, the kon amounted to 2.9e+06 M⁻¹ s⁻¹ in [1], 740000 M⁻¹ s⁻¹ in [2], 2.9e+06 M⁻¹ s⁻¹ in [6] and 740000 M⁻¹ s⁻¹ in assay [7]. Further, the “EC50 (read off the curve)” value in assay [3] was approximately 0.2 nM; in [4], approximately 1 nM; in [5], approximately 0.1 nM; in assay [9] it was approximately 0.1 nM. Moreover, the binding result with human insulin is on record as “no binding”. In [8], this molecule came in with an IC50 of 1.29 nM.

B2: 29D10 (antibody, human IgG4, V domains shown)
VH: QVQLVQSGAEVKKPGSSVKVSCKASGYTFTSYYMIWVRQAPGQGLEWMGDINPYNGGANFAQKFQGRVTITADESTSTAYMELSSLRSEDTAVYYCAREGPYFSNLYVMDYWGQGTLVTVSS
VL: EIVLTQSPATLSLSPGERATLSCRASQSVSYEGENYLNWYQQKPGQAPRLLIYAASNRATGIPARFSGSGSGTDFTLTISSLEPEDFAVYYCQLSNEDLLTFGGGTKVEIK
notes: Library-derived clone, tested as human IgG4(S228P)/Ckappa IgG; framework residue limits counted on the grafts
Regarding B2, in [6], the Kd was 0.2 nM, the dissociation rate constant (koff) is 0.00037 s⁻¹ and the kon stood at 1.9e+06 M⁻¹ s⁻¹. Further, in assay [7], the Kd turned out to be 0.42 nM, the koff stood at 0.00022 s⁻¹ and the kon amounted to 520000 M⁻¹ s⁻¹. The same molecule came in with a human/cyno affinity differential in assay [10] of less than 3 fold. In addition, the IC50 in assay [8] is 1.93 nM.

B3: MH13 (antibody, human IgG4, V domains shown)
VH: B2 VH with T30S, Y32N, F60Y
VL: B2 VL with L82P
notes: Deimmunized MH5 derivative, human IgG4(S228P)/Ckappa IgG
Regarding B3, in assay [1], the Kd stood at 0.397 nM, the “fold of the affinity of hu0301” value was not above 2 fold, the koff came to 0.000673 s⁻¹ and the kon is 1.69e+06 M⁻¹ s⁻¹. In [2], the affinity, expressed as Kd, was 0.723 nM; the “fold of the affinity of hu0301” value was not above 2 fold; the dissociation rate constant (koff) was 0.000598 s⁻¹; the kon was determined as 827000 M⁻¹ s⁻¹. In assay [4], the “EC50 (read off the curve)” value was approximately 1 nM. For the same molecule, the binding result with human insulin was “no binding”.

B4: MH31 (antibody, human IgG4, V domains shown)
VH: B2 VH with T30S, Y32A, F60Y, Q114R
VL: B2 VL with L50A, L51A, L82P
notes: as for B3
As for B4, the binding result in assay [3] is recorded as “binds”; in assay [5], “binds”; with human insulin, “no binding”.

B5: 29E11 (antibody, human IgG4, V domains shown)
VH: B2 VH with G57T, N59T, F60Y
VL: B2 VL with E32D, N38A
notes: as for B2
On to B5, for which the binding result in [11] and in assay [9] was “binds” throughout.

B6: MH33 (antibody, human IgG4, V domains shown)
VH: B2 VH with T30S, Y32A, F60Y, Q114R
VL: B2 VL with L82P
notes: as for B3
In assay [1], B6 returned a Kd of 1.09 nM, a koff of 0.00144 s⁻¹ and a kon of 1.32e+06 M⁻¹ s⁻¹. In assay [2], this molecule yielded a Kd of 1.74 nM, a koff of 0.00115 s⁻¹ and a kon of 660000 M⁻¹ s⁻¹. Moreover, the “EC50 (read off the curve)” value in assay [4] was approximately 0.7 nM. In addition, the binding result with human insulin is “no binding”.

B7: 30E06 (antibody, human IgG4, V domains shown)
VH: B2 VH with A58T, N59T, F60Y
VL: B2 VL with N38A, R58L
notes: Library-derived clone; tested as human IgG4(S228P) / human Ckappa IgG; also called 30E6; mAb-3
In assay [6], B7 registered a Kd of 0.11 nM, an off-rate constant (koff) of 0.00019 s⁻¹ and a kon of 1.9e+06 M⁻¹ s⁻¹. In [7], this molecule had a dissociation constant Kd of 0.25 nM, a koff of 0.00014 s⁻¹ and a kon of 570000 M⁻¹ s⁻¹. In assay [10], the human/cyno affinity differential was less than 3 fold. The IC50 in assay [8] was 1.53 nM.

B8: 29H09 (antibody, human IgG4, V domains shown)
VH: B2 VH with F60Y
VL: B2 VL
notes: as for B2
In assay [6], B8 registered a dissociation constant (Kd) of 0.19 nM, a koff of 0.00034 s⁻¹ and a kon of 1.8e+06 M⁻¹ s⁻¹. In assay [7], this molecule displayed a Kd of 0.42 nM, an off-rate (koff) of 0.00023 s⁻¹ and an on-rate (kon) of 550000 M⁻¹ s⁻¹. The human/cyno affinity differential in assay [10] was less than 3 fold. Also, the IC50 in assay [8] amounted to 2.16 nM.

B9: 30C11 (antibody, human IgG4, V domains shown)
VH: B2 VH with Y32N, G57T, N59T, F60Y, G100D
VL: B2 VL with E34D, R58L, A59E, E97Q
notes: as for B2
As to B9, the binding result in [11] and in assay [9] was “binds” throughout.

B10: MH9 (antibody, V domains shown)
VH: B2 VH with T30S, M34I, G57T, F60Y
VL: B2 VL with N38A, E97Q
notes: Designer clone, human IgG4(S228P)/Ckappa IgG
For the molecule B10, the “EC50 (read off the curve)” value in [9] is approximately 10 nM.
